Measured values published in PMC1762419.

Target: endogenous Maf1 (human (endogenous in HeLa)) (UniProt Q9H063)
Assay: co-IP; HeLa (cell line 9-8) whole cell extract, immunoprecipitation with anti-Maf1 or anti-GAPDH antibodies; immunoblot with anti-RPC1, anti-Brf1, anti-Maf1

Sequence of endogenous Maf1 (human (endogenous in HeLa)) (Q9H063 whole entry): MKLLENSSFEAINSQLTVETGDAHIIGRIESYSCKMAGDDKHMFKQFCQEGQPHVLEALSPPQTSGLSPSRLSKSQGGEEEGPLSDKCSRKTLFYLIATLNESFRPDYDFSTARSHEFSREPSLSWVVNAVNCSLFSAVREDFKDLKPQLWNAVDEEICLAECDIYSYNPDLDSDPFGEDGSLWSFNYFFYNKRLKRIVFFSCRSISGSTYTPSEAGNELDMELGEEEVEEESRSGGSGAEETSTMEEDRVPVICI

percent of RPC1 co-immunoprecipitated: 6%
Substance: RPC1, the largest subunit of pol III (endogenous, HeLa) (from UniProt O14802 1-1390) (natural protein)
